{"source": "patent US20100135951", "proteins": {"B1": {"name": "recombinant active human caspase-8 (protein)", "chain": "SESQTLDKVYQMKSKPRGYCLIINNHNFAKAREKVPKLHSIRDRNGTHLDAGALTTTFEELHFEIKPHDDCTVEQIYEILKIYQLMDHSNMDCFICCILSHGDKGIIYGTDGQEAPIYELTSQFTGLKCPSLAGKPKVFFIQACQGDNYQKGIPVETDSEEQPYLEMDLSSPQTRYIPDEADFLLGMATVNNCVSYRNPAEGTWYIQSLCQSLRERCPRGDDILTILTEVNYEVSNKDDKKNMGKQMPQPTFTLRKKLVFPSD"}}, "target": "purified cIAP1, Q13490", "sequence (Q13490 whole entry)": "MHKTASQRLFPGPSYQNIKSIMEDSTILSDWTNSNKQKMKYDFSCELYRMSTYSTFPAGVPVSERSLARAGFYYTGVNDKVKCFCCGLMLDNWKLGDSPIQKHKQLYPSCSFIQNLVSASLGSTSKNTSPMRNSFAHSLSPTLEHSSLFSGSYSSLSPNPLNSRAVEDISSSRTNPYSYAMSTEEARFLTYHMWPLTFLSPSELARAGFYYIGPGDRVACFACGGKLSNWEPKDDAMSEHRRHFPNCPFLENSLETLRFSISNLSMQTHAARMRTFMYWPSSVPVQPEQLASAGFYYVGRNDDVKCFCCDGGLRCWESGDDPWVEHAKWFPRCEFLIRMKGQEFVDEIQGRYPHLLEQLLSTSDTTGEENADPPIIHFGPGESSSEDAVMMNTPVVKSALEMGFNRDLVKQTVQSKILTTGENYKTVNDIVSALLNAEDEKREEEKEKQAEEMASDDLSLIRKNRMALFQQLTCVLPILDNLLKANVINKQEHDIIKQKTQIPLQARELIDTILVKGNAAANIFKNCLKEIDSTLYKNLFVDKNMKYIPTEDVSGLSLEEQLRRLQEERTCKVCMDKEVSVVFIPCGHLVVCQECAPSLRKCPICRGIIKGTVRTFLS", "data": [{"protein": "B1", "values": [{"measurement": "caspase-8 protease activity (fluorogenic substrate Ac-IETD-AMC)", "value": "purified cIAP1 also suppressed caspase-8 protease activity completely"}]}]}
